Results as given in the supplement of paper PMC10567573.

B1: HDAC6 (parent)
chain: QYMNEGELRVLADTYDSVYLHPNS

Variants of: B1
Assay: protein stability index of a GFP-peptide fusion (GPS, HEK-293T) (PSI 1-6); higher = more stable
Settings: c terminus: a fixed tail appended
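Further: lentivirally expressed fusions sorted by FACS into six bins by GFP to DsRed ratio, PSI derived from sequencing read proportions per bin multiplied by bin number.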

Protein stability index: each site, then its substitutions
D16: C 4.03; W 4.07; S 3.08; E 2.42; P 2.56; T 1.8; F 3.19; V 2.42
V18: C 2.17; I 1.51; L 1.95; E 3.18; F 2.23; Q 3.02; T 1.77; G 2.6; M 2.25; R 2.63; K 2.63; D 2.87; Y 2.21; N 2.98; A 2.56; P 1.92; H 2.68; S 2.88; W 2.1
Y15: R 3.05; P 1.9; M 2.79; S 3.18; H 3.13; Q 2.95; C 2.46; D 3.86; I 1.81; W 2.25; L 2.69; G 2.6; K 3.46; E 3.18; F 1.83; V 2.38; T 2.82; A 2.75; N 2.65
H21: L 1.71; C 3.56; E 2.33; A 1.43; I 2.25; G 1.64; F 3.64; K 1.92; D 1.84
N4: Q 2.19; D 1.61; G 1.89; T 2.16; I 2.49; C 2.08; P 2.81; S 2.05; M 2.76; V 1.68; F 1.21; E 3.02; R 2.97; K 2.2; L 1.55; H 2.23; A 1.8; Y 1.93
E5: F 1.72; D 1.88; K 1.9; V 1.21; N 3.15; M 1.8; T 2.02; P 2.57; A 2.95; S 1.92; Y 2.03; H 2.91; G 2.85; C 1.96; L 2.12
L11: W 2.64; N 2.32; I 1.78; F 2.01; Q 2.32; R 2.61; D 3.01; M 2.98; K 3.03; T 2; H 3.13; S 1.76; C 1.95; V 2.25; Y 2.14; P 3.49; A 1.83; G 2.46; E 2.36
T14: N 2.36; D 2.84; H 2.73; P 2.53; V 1.5; R 2.51; E 2.2; F 1.73; A 2.1; W 1.43; C 2.54; K 1.76; Q 3.12; Y 2.92; L 1.28; S 2.04
Y2: R 3.3; Q 2.47; S 2.71; N 4.07; M 1.73; W 2.11; P 4.32; T 2.9; V 3.27; L 2.68
L20: V 2.22; Y 2.38; D 3.27; Q 2.58; A 2.54; M 2.14; W 1.67; R 2.06; I 1.39; P 2.68; K 1.87; S 3.32; F 2; H 3; E 2.26; T 2.88; G 2.14; N 2.42
Y19: G 3.72; A 2.49; I 1.79; D 3.32; E 3.03; W 4.22; L 2.1; R 1.59; K 1.71; H 2.45; V 4.09; P 2.32; M 1.9; N 2.62; S 2.14; Q 3; T 3.2; F 2.11; C 2.13
E7: D 2.04; M 2.81; R 1.55; N 1.72; S 2.04; P 2.64; I 1.81; L 2.69; W 1.72; K 1.76; Q 1.66; T 2.62; V 1.5; H 2.26; A 1.96; F 2.46; G 3.04; Y 1.44
M3: K 3.39; I 3.39; Y 2.56; P 4.02; W 2.29; L 2.38; S 3.23; A 3.17; T 2.99; C 3.07; E 3.88; H 3.64; D 4.19; F 2.15; V 3.46; Q 3.73; R 3.65; N 3.41
A12: F 2.89; L 2.58; R 2.31; I 2.73; N 1.92; V 1.09; T 2.54; H 2.31; M 3.21; G 1.68; Q 2.04; K 1.98; S 2.58; W 1.02; P 3.17; E 2.36; D 1.57; Y 2.1
V10: S 2.81; K 2.01; A 1.79; D 3.61; C 2.51; Q 3.27; Y 2.95; R 1.92; I 1.84; H 2.31; E 2.46; F 2.69; W 2.22; P 3.53; G 3.15; M 2.08; N 2.15; T 2.18; L 1.66
L8: H 2.45; Y 2.96; D 2.7; G 3.36; K 3; M 1.85; C 2.33; S 2.55; T 2.19; F 1.52; R 2.94; E 3.51; Q 2.66; A 2.53; I 2.86; W 1.33; V 3.68; N 2.62; P 3.84
D13: N 2.23; G 2.86; Q 1.57; L 1.45; R 1.27; E 1.6; S 1.9; V 1.97; K 1.16; F 3.63; T 2.08; H 1.77; C 1.2; I 2.2; P 1.94; W 1.37
R9: H 3.19; D 2; I 2.13; Q 2.65; F 3.31; E 2.7; A 1.76; L 1.6; P 3.26; T 2.14; S 2.05; G 2.18; W 1.23; Y 1.87; V 4.11; M 1.46; C 1.48; N 2.67; K 1.69
G6: Q 1.91; I 1.72; A 3.02; N 2.18; L 2.51; C 2.26; W 1.88; T 1.85; P 3.01; E 2.19; H 1.63; F 2.94; S 1.98; V 1.97; K 2.06; M 1.6; D 1.89; R 2.03; Y 2.5
S17: L 2.02; K 1.78; M 1.95; T 2.37; Y 1.47; R 2.18; P 3.32; Q 2.5; G 2.05; H 2.07; N 2.08; C 2.46; E 2.99; D 2.56; W 2.57; F 2.53; V 2.09; I 2.32
